# Source: the supplement of paper PMC12042874
# ± gives the uncertainty stated by the source.
# Experiment: amyloid nucleation score (Sup35N fusion, yeast selection) (log enrichment); library NNK1; higher = more nucleation; inactive = no reads after selection
# In short: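 Peptides of 20 random codons fused to Sup35N were expressed in psi-negative yeast, induced 24 hours with 100 μM copper sulfate, then grown 7 days at 30°C on medium lacking adenine and uracil. Input and output plasmid inserts were Illumina-sequenced. Nucleation score is the DiMSum log enrichment of output over input reads, centred on the mode score of non-aggregating sequences, excluding sequences with under 100 input reads. Random libraries had three technical output replicates.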
row,Substance,amyloid nucleation score
1,YLASFMNLAISVGLVDGLCG,-1.29 ± 1.7
2,FDFACCTTGIGPFSCDLGSG,7.694 ± 0.052
3,DFAFYTVTLCFE,0.809 ± 0.35
4,SNEVEGLFLKLYNFVPVRQW,0.148 ± 0.26
5,MIRGLPQMMNWVP,0.758 ± 0.38
6,RTVTWEMQKVDWSLWSCRWL,2.56 ± 0.17
7,GLRKYVKPVYSMCVFFLKWA,1.02 ± 0.58
8,IFATTIFLLGTRTKLMSG,0.971 ± 0.65
9,LVLGSSLWAGCCDQPHGWQV,-0.211 ± 0.54
10,GIAVHGMLDRMVSRRGLRAW,0.387 ± 0.97
11,ILEVCRHRVIIIRNYLSYCA,2.8 ± 0.24
12,VKRHNLLCWRFMDFTINLGG,4.01 ± 0.13
13,HSVNYTLSQVNGSGLVFRAF,2.41 ± 0.12
14,DYDRTSFFEDSFVTD,-0.7 ± 1.1
15,FLMWMWLVSNRKHWLFTDKV,-2.54 ± 2.7
16,LCFDVSFRYYGMGYIL,0.165 ± 0.23
17,NGMIFFVIGMNFGCQESSRN,6.208 ± 0.051
18,CAFEAGLWTSDFLNEPVYHY,-0.126 ± 0.3
19,HICSRDVLLRQY,1.41 ± 0.8
20,LPGFWPFMSDTPLGHQIVA,-1.07 ± 1.6
21,FGMLIAVRSR,0.315 ± 0.29
22,SVSEWRQVILIIGVIVK,-0.278 ± 0.51

row,Substance,amyloid nucleation score
1,ACDTS,0.693 ± 0.45
2,VYLVMSVCGTRNGYKHSSQL,0.265 ± 0.25
3,VMDYYTMFFEMPRGRALIAN,inactive
4,WGCRV,-0.451 ± 0.58
5,KLYLVVRMTGQPPSGMACVL,0.142 ± 1.2
6,LFRFCTIILLAYGLSLCNDI,inactive
7,YCMCCNNRVLMVYHCTQVSA,inactive
8,IWEFSWLYMLKVMRSGFSYN,-0.282 ± 0.44
9,CKNNGGKDMSVMI,1.14 ± 0.49
10,FMRSATCKVWNL,-0.079 ± 0.51
11,KMVLF,0.927 ± 0.49
12,RIKHERLIVFVMNLDINQ,4.3 ± 0.096
13,LSRPVDNSCLESMRRVDWTH,-0.444 ± 1.2
14,CKKSCGSVRSNASLTKDWSN,-0.097 ± 0.28
15,VVMVLSKGPDIRSNMRCSSV,-1.9 ± 1.4
16,VQIDK,0.514 ± 0.33
17,LNRTRCLWL,0.877 ± 0.58
18,SCLMY,inactive
19,EKRLYGYLKDHLE,-0.605 ± 0.35
20,QYLLFGYNYNAWERRDLALW,0.354 ± 0.22
21,VNWFTR,0.582 ± 0.56
22,NSEKLPMHPRGHAGQAWVQS,0.153 ± 0.45

row,Substance,amyloid nucleation score
1,LIINGD,0.609 ± 1.2
2,RFETRTL,0.93 ± 0.31
3,FELICNRNGNSPRYAFKKIP,0.976 ± 0.35
4,VGLDLALSYHFAQG,4.8 ± 0.087
5,AAVMCAIDLIGLNFGLGNWK,7.816 ± 0.052
6,SSCKCRCGFD,-0.699 ± 0.67
7,CNDISISFYMRTGACYWRVW,-0.499 ± 0.46
8,CRLISCDRFRSTRSKG,0.016 ± 0.52
9,HKFVRIDGEN,1.54 ± 0.84
10,VLKGNKRRVLNAWVAYVLRS,0.273 ± 0.35
11,ASRRSSHHSGRMHRAQLSGF,-1.5 ± 1.8
12,QVARLLSHAMWLVGKTL,inactive
13,GSCSYSYCTNFVRTMYGAYG,0.379 ± 0.71
14,TIAMCISLIGIDSYY,0.997 ± 0.29
15,ARVNVWAVGWSENNSNLKI,0.916 ± 0.24
16,KRCSYRS,0.07 ± 0.6
17,SAGHLNYNEWLNGCGDRGKC,-0.367 ± 0.53
18,ADDGCSRNVCQTLYMSFLVN,-0.072 ± 0.35
19,AYNFRSRRWMLFGYNWVSAP,1.59 ± 0.51
20,KWYNTPNSDWSV,-0.983 ± 1.7
21,REDPIALGSRWTRPISKTLG,0.734 ± 0.97
22,SLVLDGVSTPPIDYLNLVLV,-1.26 ± 0.76

row,Substance,amyloid nucleation score
1,RLARWPEPLIRCFAS,0.594 ± 0.55
2,RVLVDPRSSFVYSTRFDDD,0.2 ± 0.45
3,EGFITSSMALGLHFVLLGWV,-1.37 ± 1.3
4,VGYEVLSHYDAGIVSLVYLS,0.645 ± 0.53
5,FRSLMLLDFTYHVVSGLRYK,-0.609 ± 1.9
6,PWDYVSLSI,-0.424 ± 0.73
7,NTSDDYIDLRYNHKGEAFEG,inactive
8,LYLYM,0.959 ± 0.34
9,KGAVFVPETAPLI,0.93 ± 1
10,PWCQVRHSSYRASWSSVVVN,-0.254 ± 0.48
11,WSWRLPGPCLFFCAEEQLTK,1.32 ± 0.84
12,WRMYMYVNNPSNKHWVRRAS,-0.488 ± 0.51
13,VLLADVCLSVERGKVTDPGS,1.25 ± 0.58
14,NQCYYRAGLFRVDLFCLELA,inactive
15,CSHRM,0.707 ± 0.51
16,LLGASLNVKPESDFLLPAKR,0.175 ± 0.41
17,ISNWDVLSCMTQDIGVMTLL,-0.092 ± 0.82
18,YSYLV,-0.716 ± 0.84
19,TVCRSLSRLERHLR,0.068 ± 0.63
20,YKIGLT,-0.227 ± 0.48
